Experimental data published in CN102875676A (WUXI PROGRAMMED ARTIFICIAL MOLECULAR EVOLUTION CO LTD, dated 2013).

B1: 6B2 Fab (候选分子6B2) (Fab, V domains shown)
VH: EVQLVQSGGGVVQPRRSLRLSCAASGFDIYDDDIHWVRQAPGKGLEWVYIAPSYGYTRYADSVKGRFTVSRDNSKNTLYLQMNSLRAEDTSVYYCARSSDASYSYSAMDYWGQGTLVTVSS
VL: DIQMTQSPSSVSASIGDRVTITCRASQDASYSSAWYQQRPGKAPELLIYSAASYESGVPSRFSGSGSGTDFTLTISSLQAEDFATYYCQSSASPATFGQGTRLEIKR
B2: 全长6B2 (F6B2), full-length antibody (antibody, V domains shown)
VH: B1 VH
VL: B1 VL
notes: expressed in DG44 cells; also called 6B2全长抗体分子
B3: 3D7 Fab (原型分子3D7) (Fab, V domains shown)
VH: EVQLVESGGGLVQPGGSLRLSCAASGFNIKDTYIHWVRQAPGKGLEWVAYIAPSYGYTRYADSVKGRFTISADTSKNTAYLQMNSLRAEDTAVYYCSRSSDASYSYSAWGQGTLVTVSS
VL: DIVMTQSPSSLSASVGDRVTITCRASQFVGFYIHWYQQKPGKAPKLLIYAASERATGVPSRFSGSRSGTDFTLTISSLQPEDFATYYCQQWLNNPFTFGQGTKVEIKR
notes: Tested as a Fab (phage supernatant in the screen); also called 原型抗体3D7

Assays:
[1] = molecular target: T1, 重组人VEGF (recombinant human VEGF, VEGF-A) (human, UniProt P15692-4 27-191, limits assumed); test: Friguet method (solution equilibrium with human VEGF, ELISA of free antibody on immobilised VEGF), Fab
T1 sequence (P15692 other isoform, or with tags, fused parts or gaps limits assumed): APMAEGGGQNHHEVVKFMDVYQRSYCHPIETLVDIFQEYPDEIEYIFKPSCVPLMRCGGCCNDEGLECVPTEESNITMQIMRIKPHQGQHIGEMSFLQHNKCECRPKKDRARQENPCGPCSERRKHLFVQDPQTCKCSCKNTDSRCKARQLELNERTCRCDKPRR

[2] = molecular target: T1, 重组人VEGF (recombinant human VEGF, VEGF-A); test: Friguet method, full-length antibody

| Binder | Kd [1] [nM] | Kd [2] [nM] |
| --- | --- | --- |
| B1 | 0.276 |  |
| B2 |  | 0.022 |
| B3 | 1.56 |  |
